Assay results taken from the nanobody polyreactivity screen of Harvey et al. (2022).

Assay: yeast display, Sf9 membrane polyspecificity reagent, FACS + sequencing; frameworks hold sequencing errors
Procedure, shortened: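 Nanobodies came from a synthetic yeast display library in Saccharomyces cerevisiae BJ5465, induced with galactose for 36–48 hours and stained for 1 hour at 4 °C with 10% biotinylated, detergent-solubilized Sf9 membrane reagent. Cells were enriched on streptavidin microbeads and then FACS-sorted, with low and high (top ~1%) gates set on anti-HA fluorescence for expression and streptavidin fluorescence for reagent binding. Each polyreactivity label reflects the gate a clone came from. Genes were amplified by colony PCR, sequenced by MiSeq 2 × 250 and filtered by CDR length.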

Sequence | polyreactivity (PSR sort gate)
QVQLVESGGGLVQAGGSLRLSCAASGSIFYWYAMGWYRQAPGKERELVASITTAGSTYYADSVKGRFTISRDNAKNTVYLQMNSLKPEDTAVYYCNTVPYGYHGYLYLYTYGYWGQGTQVTVSS | high polyreactivity
QVQLVESGGGLVQAGGSLRLSCAASGSIFGRNAMGWYREAPGKERVLVAAINSGGSTNYADSVKGRFTISRDNAKNTVYLQMNSLKPEDTAVYYCAARTYSSGRYYGYVAFYYWGQGTQVTVSS | high polyreactivity
QVQLVESGGGLVQAGGSLRLSCAASGRTFPGNSMGWYRQAPGKERELVAAISWSGTRTYYADSVKGRFTISRDNAKNTVYLQMNSLKPEDTAVYYCNVVVKGAWDYYPYDYCGQGTQVTVSS | high polyreactivity
QVQLVESGGGLVQAGGSLRLSCAASGRILDVNDMGWYRQAPGKERELVAAISSGTNTYYADSVKGRFTISRDNAKNTVYLQMNSLKPEDTAVYYCAADYLGLSDADDYDYWGQGTQVTVSS | low polyreactivity
QVQLVESGGGLVQAGGSLRLSCAASGYTFKSYFTGWYRQAPAKERELVAAITSIGGSTYYADSVKGRFTISRDNAKNTVYFLMNSVKPEDTEVYYCAKRRRGYAFSSDYWGPGTQVTVSS | high polyreactivity
QVQLVESGGGLVQAGGSLRLSCAASVYIFWINAMGWYRQAPGKDRELVAAIRYSTGRTYYADSVKGRFTISRDNAKNTVYLQMNSLKPEDTAVYYCNARSWYIRGSQEYYYWGQGTQVTVSS | high polyreactivity
QVQLVESGGGLVQAGGSLRLSCAASGSTFYVYAMGWYRQAPGKERELVAAISKRGGTTYYADSVKGRFTISRDNAKNTVYLQMNSLKPEDTAVYYCATVSSSRDHDYWGQGTQVTVSS | high polyreactivity
QVQLVESGGGLVQAGGSLRLSCAASGSPFRGNAMGWYRQAPGKEREFVAAITVSCGSTYYADSVKGRFTISRDNAKNNVYLQMKSLNPEDTAVYYCAARYLRYSSKTIQNEDYWGQGTQVTVSS | high polyreactivity
QVQLVESGGGLVQAGGSLRLSCAASGRTFSFYAMGLYRQAPGKERELVAAIRSDGGTTYYADSVKGRFTISRVNGKNTVYLQMNSLKPEDTAVYYCNTQSFYFVSFSSSRYLRYYWGQGTQVTVSS | low polyreactivity
QVQLVESGGGLVQAGGSLRLSCAASGSTFPYYPMGWYRQAPGKERELVAAISRGDSTNYADSVKGRFTISRDNAKNTVYLQMNCLKPEDTAVYYCAARLQYRRTSVKYYFWGQGTQVTVSS | high polyreactivity
QVQLVESGGGLVQAGGSLRLSCAASGSTFKGNAMGWYRQAPGKERELVAAINRSGTSTYYADSVKGRFTISRDNAKNTVYLQMNSLKPEDTAVYYCAKKYFGHRFDYWGQGTQVTVSS | high polyreactivity
QVQLVESGGGLLQAGGSISLSCAASGFTISPYAMGWYRQAPAKERELVAVISKSSTRTYYADSVKGRFTITRDNAKNTVYLQMNSLKPEDTAVYYCYAGCNFVSGYYYWGQGTQVTVSS | high polyreactivity
QVQLVESGGGLVQAGGSLRLSCAASGFTFRYYAMGWYRPAPGKERELVAAISSRGGSTYYADSVKGRFTISRDNAKNTVYLQINSLKPEDTAVYYCAVVRWRHYIFATYDYWGQGTQVTVSS | high polyreactivity
QVQLVESGGGLVQAGGSLRLSCAASGRTAMGWYRHAPGKEREVVAAITGSGVSTYADSVKGRFTISRDNAKNTVYLQMNSLKPEDTAVYYCAADLPFVGGDYWGQGTQVYVSS | low polyreactivity
QVQLVESGGGLVQAGGTLRLSCAASGYTLTINVMGWYRPAPGKERELVAAITSSGASTNYADSVKGRFTISRDNAKNTVYLQMNSLKPEDTAVYYCNVGNEHQSDFVVPFDYNHWGQGTQVTVSS | low polyreactivity
QVQLVESGGGLVQAGGSLRLSCAASGRTFSVNAMGWYRQAPGKERELVAAITSGASTNYADSVKGRFTMSRDNAKNTVYLQMNSLKPEDTAVYYCAADATYGHVPAEYDYWGQGTQVTVSS | low polyreactivity
QVQLVESGGGLVQAGGSLRLSCAASGRTYNGYVMGGYRQAPGTEREFVAVINWSGGNTYDADSVKGRFTISRDNAKNTVSLQMNRLKPDDTAVYYCAPRRVRSYAYDYWGQGTQVTVSS | high polyreactivity
QVQLVESGGGLVQAGGSLRLSCAASGFTIARNTMGWYRPAPGKERELVAAISGGGSTNYADSVKGRFTISRDNAKYTVYLQMNSLKPEDTAVYYCNADSNSDNNDYDYWGQGTQVTVSS | low polyreactivity
QVQLVESGGGLVQAGGSLRLSCAASGSTFIGYAMGWYRQAPGKERELVAAISRSDGSTYYADSVKGRFTISRDHAKNTVYLQMNSLKPEDTAVYYCNADYYRWYDYWGQGTQVTLSS | low polyreactivity
QVQLVESGGGLVQAGGSLRLSCAASGSMFTGYDMGWYRQAPGKERELVAAITASGSGTYYADSVKGRFTISRDNAKNTVYLQMNSLKPEDTAVYYGNAPYLFYRGDSDHYYYNEGGYWGQGTQVTVSS | high polyreactivity
QVQLVESGGGLVQAGGSLRLSCAASGRTYVYNAMGLYRHAPGKERELVAGITNGGSTNYADSVKGRFTISRDNAKNTVYLQMNSLKPEDTAVYYCNRDVKVLYASSHSPYGYDHWGQGTQVTVSS | low polyreactivity
QVQLVESGGGLVQAGGSLRLSCAASGITFSEYAMGLYRQAPGKERELVAAITSGGNTYYADSVKGRFTISRDNAKNTVYLQMNSLKPEDTAVYYCAATFSSAFAYYYWGQGTQVTVSS | low polyreactivity

Sequence | polyreactivity (PSR sort gate)
PVQLVESGGGLVQAGGSLRLSCAASGRTFRSNCMGWYRQAPAKERDLVATISEGGGSTYYADSVKGRFTISRDHAKNNVYLQMNSLKTEYTAVYYCAADKWYVLHYLDMNYWGQGTQVTVSA | high polyreactivity
QVQLVESGGRLVQAGGSLRLSCAPSGIILSLYAMGWYRQAPGKVRELVATIRFSGVSTYYADSVKGRFTISRDNAKNTLYLQLTSLKPEDTAVYYCNKHLATTFTVSRFDYWGQGTQVTVSS | low polyreactivity
QVQLVESGGGFVQAGGSLRLSCAASGSNLGKNTMGWYRQAPGKERELVATISRSGGSTYYADSVKGRFTISRDNAKNTVYLQMNSLKPEDTAVYYCAARAIRSGYYRYDYWGQGTKVTVSS | high polyreactivity
QVQLVESGGGLVQAGGSLRLSCAASGSIFGLYAMGWYRQAPGKERELVAAISTSSGRTYYADSVKGRFTISRDNAKNTVYLQMNSLKPEDTAVYYCAASGAWWSLHYAGDYWGQGTQVTVSS | high polyreactivity
QVQLVESGGGFVQAGGSLRLSCAPSGRIFLRNDMGWYRQAPGKEREWVAGISWRGGRTYYADAVKGRFTISRDNAKNTVYLQMNSLKPEDTAVYYCNADKDETSGGKYDSWGQGTQVTVSS | low polyreactivity
QFQLVESAGGLLQAGGSLRIICAASGSTFGYNAMGWYRQAPGKERELVAAITGGGTTNYADSVKGRFTISRDNAKNTVYLQMNSLKPEDTAVYYCAASARRFFFPIYGLYYWGQVTQVTVSS | high polyreactivity
QVQLVESGGGLVQAGGSLRLSCAASGSTFWYYAMGWSRQAPGKERELVAAIRRGGSTYYADSVKGRFTISRDNAKNTVYLQMNSLKPVDTAVYYCAAERPYKTFGYGYWGQGTQVTVSS | high polyreactivity
QVQLVESGGGLVQAGGSLRLICAASGRTFRSYAMGWYRQAPGKERELVAAISWSGGSTYYADSVKGRFTISRDNAKNTVYLQMNSLKPVDTAVYYCAAEVYYTYVYILDYWGQGTQVTVSS | high polyreactivity
QVQLVESGGGLVQAGGSLRLSCAASGRTFAQYTMGWYRQAPGKERELVAAISYRGSSTYYADSVKGRFTISRDNAKNTVYLQMNSLKPEDTAVYYCAVVYSIYTGGYDYWGQGTQVTVSS | high polyreactivity
QVQHVESGGGLVQAGGSLRLSCAASGFIFPYYDMGWYRQAPGKEREFVAAITKSGGRTYYADSVKGRFTISRDNAKNPVYLQMNSLKPEDTAVYYCAAEPDTYWYTYDYWGQGTQVTVSS | low polyreactivity
QVQLVESGGGLVQAGGSLRLTCAASGYIFPYNVMGWYRQAPGKERELVAAITWRVVRTYYADSVKGRFTISRDNAKNTVYLQMNSLKPEDTAVYYCAALSRQSGDYWGQGTQVTVSS | high polyreactivity
QVQLVESGGGLVQAGGSLRLSCAASGSIFDYNAMGWYRQAPGKERELVAAISVNGGNTYYADSVKGRFTISRDNAKNTVYLQMNSLKPEDTAVYYCAADSYGGSKYDYWGQGTQVTVSS | low polyreactivity
QVKLVESGGRLVQAGGSLRLTCAASGFIFLNYSMGWYRQAHGKERELVAAISRSGGRTYYADSVTGRFTISRDYAKNTVYLQMNSLKPEDPAVYYCAVYIYGIVFYFTYMYVNCYDYWGQGTQVTVSS | high polyreactivity
QVQLVESGGGLVQAGGSLRLSCAASGSTFYTNDMGWYRQAPGKERELVAAITSSGNTNYADSVKGRFTISRDNAKNTVFLQMNCLKPEDTAVYYYYYYQYDYWGQGTQVTVSS | low polyreactivity
QVQLVESGGGLVHAGGSLRLSCAASGFTFPNYAMGWYRQAPGKERSLVAAITSGGGRTNYADSVKGRFTISRDNAKNTVYLQMISLKPEDTAVYYCAKTRVRGSEFGYWGQGTQVTVSS | low polyreactivity
QVQLVESGGGLVQAGGSLRLSCAASGSTIQSNMGWYRQAPGKERELVAAITTNGSSTYYADSVKGRFTISRDNAKNTVYLQMNCLKPEDTAVYDCAAGPRYRYYYGWYDYWGQGTQVNVSS | high polyreactivity
QVQLVESGGGLVQAGGSLRLCCAASGSTQAIYAMGWYRQAPGNERELVAAISGGGSTYADSVKGRFTISRDNAKNTVYLQMNSLKPEDTAVYYCNADGWGDSFWSNFRFDYWGQGTQVSVSS | low polyreactivity
QVQHVESGAGLVQAGGSLLLSCAASGRIFQKYPMGWYRQSPGKERELVAAISRGGSTYYADSVKGRFTISRDNAKNTVYLQMISLNPEDTAVYFCASTSYRRTGYNYWGQGTQVTVSS | high polyreactivity
QVQLVESGGGLVQAGGSLRLSCAAWSIFYLNAMGWYRQAPGKERELVAAISSAGSTYYADSVKGRFTISRDNAKNTVYLQLNSLKPEDTAVYYCAAYWYDSPGVTEIWYDYWGQGTQVTVSS | low polyreactivity
QVQLVESGGGLVQAGGSLRLSCAASGPTFYRYAMGRYRQAPGKERELVAAISASGGSTYYADSVKGRFTISRDNAKNTVYLQMNSLKPEDTAVYYCAARGWYSLYEFYYWGQGTQVTVSS | high polyreactivity
QVQLVESGGGLVQAGGSLRLSCAASGIIFITYAMGWYRQAPGKERELVAVISKGGGRTYYADSVKGRFTISRDNAKNTVYLQMNSLKPEDTAVYYCAARSSSNRYVHMDYWGQGTQVTVSS | high polyreactivity
